Reference: patent publication US20260097113A1 (Pfizer, published 2026)

T1: RSV F protein of subtype A comprising a polypeptide of SEQ ID NO: 1 and a polypeptide of SEQ ID NO: 2 (RSV subtype A, UniProt P11209 137-513; P03420 26-109)
T1 construct: Stabilized prefusion F trimer made of three F2-F1 heterodimers; Produced recombinantly in CHO cells; also called RSV A; RSVA
T1 chain 1: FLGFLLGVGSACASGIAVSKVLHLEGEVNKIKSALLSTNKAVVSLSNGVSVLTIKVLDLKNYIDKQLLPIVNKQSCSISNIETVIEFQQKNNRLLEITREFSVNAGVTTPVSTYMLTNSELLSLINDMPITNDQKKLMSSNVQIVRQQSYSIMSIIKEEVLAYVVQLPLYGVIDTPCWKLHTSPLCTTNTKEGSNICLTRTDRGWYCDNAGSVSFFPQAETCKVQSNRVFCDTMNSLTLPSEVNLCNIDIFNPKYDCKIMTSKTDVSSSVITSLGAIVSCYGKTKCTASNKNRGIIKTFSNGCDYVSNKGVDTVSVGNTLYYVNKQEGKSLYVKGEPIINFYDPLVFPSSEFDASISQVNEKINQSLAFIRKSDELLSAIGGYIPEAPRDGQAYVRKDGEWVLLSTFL
T1 chain 2: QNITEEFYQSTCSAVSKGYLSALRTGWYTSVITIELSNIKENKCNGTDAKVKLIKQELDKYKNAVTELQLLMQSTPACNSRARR

T2: RSV F protein comprising a polypeptide of SEQ ID NO: 3 and a polypeptide of SEQ ID NO: 4 (RSV subtype B, UniProt O36634 137-513; O36634 26-109)
T2 construct: also called RSV B; RSVB
T2 chain 1: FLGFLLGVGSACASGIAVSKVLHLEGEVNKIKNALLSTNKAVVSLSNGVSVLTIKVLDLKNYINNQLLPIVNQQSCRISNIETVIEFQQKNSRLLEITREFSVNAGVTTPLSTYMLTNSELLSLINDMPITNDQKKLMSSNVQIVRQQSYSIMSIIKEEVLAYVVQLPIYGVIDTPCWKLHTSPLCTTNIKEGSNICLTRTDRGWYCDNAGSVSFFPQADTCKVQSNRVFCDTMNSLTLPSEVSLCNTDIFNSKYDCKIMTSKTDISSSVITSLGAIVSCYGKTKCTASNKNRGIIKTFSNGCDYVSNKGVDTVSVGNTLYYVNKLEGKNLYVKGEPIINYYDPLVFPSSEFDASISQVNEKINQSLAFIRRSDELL
T2 chain 2: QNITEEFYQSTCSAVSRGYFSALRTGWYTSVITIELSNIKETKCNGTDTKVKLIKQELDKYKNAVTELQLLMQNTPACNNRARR

B1: AM14 (trimeric prefusion specific antibody of the AM14 ELISA) (antibody, V domains shown)
VH: EVQLVESGGGVVQPGRSLRLSCAASGFSFSHYAMHWVRQAPGKGLEWVAVISYDGENTYYADSVKGRFSISRDNSKNTVSLQMNSLRPEDTALYYCARDRIVDDYYYYGMDVWGQGATVTVSS
VL: DIQMTQSPSSLSASVGDRVTITCQASQDIKKYLNWYHQKPGKVPELLMHDASNLETGVPSRFSGRGSGTDFTLTISSLQPEDIGTYYCQQYDNLPPLTFGGGTKVEIKR
notes: Antibody as used in the AM14 ELISA, detected with an HRP-labeled secondary antibody

What was measured:
[1] = target: RSV A + RSV B bivalent composition (RSV subtype A; RSV subtype B); test: AM14 Fab titration by SEC; Target cycle; 3 M 2-8°C
[2] = target: RSV A + RSV B bivalent composition (RSV subtype A; RSV subtype B); test: AM14 Fab titration by SEC; Target cycle; 8 M 2-8°C
[3] = target: RSV A + RSV B bivalent composition (RSV subtype A; RSV subtype B); test: AM14 Fab titration by SEC; High-Slow 1 cycle; 1 M 40°C
[4] = target: RSV A + RSV B bivalent composition (RSV subtype A; RSV subtype B); test: AM14 Fab titration by SEC; High-Slow 2 cycle; 1 M 25°C
[5] = target: RSV A + RSV B bivalent composition (RSV subtype A; RSV subtype B); test: AM14 Fab titration by SEC; High-Slow 2 cycle; 1 M 40°C
[6] = target: RSV A + RSV B bivalent composition (RSV subtype A; RSV subtype B); test: AM14 Fab titration by SEC; Low-Fast cycle; 1 M 25°C (second value)
[7] = target: RSV A + RSV B bivalent composition (RSV subtype A; RSV subtype B); test: AM14 Fab titration by SEC; High-Slow 1 cycle; 1 M 40°C (second value)
[8] = target: RSV A + RSV B bivalent composition (RSV subtype A; RSV subtype B); test: AM14 Fab titration by SEC; composition of Table 17; Pre-lyo Prep 2, T0
[9] = target: RSV A + RSV B bivalent composition (RSV subtype A; RSV subtype B); test: AM14 Fab titration by SEC; composition of Table 14; Drying Temp + Ramp Aggressive cycle
[10] = target: T1, RSV F protein of subtype A comprising a …; test: AM14 ELISA; F10 (pH 7, 50 mM NaCl, 4.5% sucrose); T0
[11] = target: T1, RSV F protein of subtype A comprising a …; test: AM14 ELISA; F12 (pH 8, 100 mM NaCl, 9.0% sucrose); T0
[12] = target: T1, RSV F protein of subtype A comprising a …; test: AM14 ELISA; F1 (pH 8, 100 mM NaCl, 0% sucrose); 2 wk 25°C
[13] = target: T1, RSV F protein of subtype A comprising a …; test: AM14 ELISA; F5 (pH 6, 100 mM NaCl, 9.0% sucrose); 1 wk 5°C
[14] = target: T1, RSV F protein of subtype A comprising a …; test: AM14 ELISA; F18 (pH 7, 50 mM NaCl, 3% sucrose + 3% mannitol); 1 wk 5°C
[15] = target: T1, RSV F protein of subtype A comprising a …; test: AM14 ELISA; F19 (pH 7, 50 mM NaCl, 3% trehalose + 3% mannitol); 2 wk 5°C
[16] = target: T2, RSV F protein comprising a polypeptide …; test: AM14 prefusion assay relative to standard; RSV B 480 µg/mL, 2% sucrose + 4% mannitol; post-lyo 2 months at 5°C

| Molecule | Prefusion Content (%) [1] | Prefusion Content (%) [2] | Prefusion Content (%) [3] | Prefusion Content (%) [4] | Prefusion Content (%) [5] | Prefusion Content (%) [6] | Prefusion Content (%) [7] | Prefusion Content (%) [8] | Prefusion Content (%) [9] | AM14 prefusion content (%), relative to standard [10] | AM14 prefusion content (%), relative to standard [11] | AM14 prefusion content (%), relative to standard [12] | AM14 prefusion content (%), relative to standard [13] | AM14 prefusion content (%), relative to standard [14] | AM14 prefusion content (%), relative to standard [15] | AM14 prefusion content (%), relative to standard [16] |
| --- | --- | --- | --- | --- | --- | --- | --- | --- | --- | --- | --- | --- | --- | --- | --- | --- |
| AM14 Fab | 69% | 73% | 51% | 72% | 52% | 71% | 46% | 81% | 67% | – | – | – | – | – | – | – |
| B1 | – | – | – | – | – | – | – | – | – | 104% | 100% | 93% | 78% | 56% | 75% | 101% |
